Tests used:
[1] = biological target: 60S ribosomal subunit (rabbit) (rabbit (endogenous in reticulocyte lysate)) (UniProt P19949)
[2] = biological target: 60S ribosomal subunit (rabbit) (rabbit (endogenous in reticulocyte lysate)) (UniProt P19949); remark: listed apart in the source
[3] = biological target: DCC C-tail ΔP3 protein (residues 1121-1424) (H. sapiens) (UniProt P43146); assay: other fluorescence titration; initial fluorescence read on the MST instrument; Cy5-labelled ΔP3 at 5 nM, 60S subunits titrated from 5 uM to 0.15 nM; 20 mM Tris-HCl pH 7.5, 100 mM KCl, 2 mM Mg(OAc)2, 1 mM DTT, 0.5 mM EDTA, 0.25 M sucrose; 25 °C; 1:1 binding model; KD values called relative
[4] = biological target: DCC C-tail N29+P1 protein (residues 1121-1167) (H. sapiens) (UniProt P43146); assay: MST; Cy5-labelled DCC protein (target) at 5 nM, purified 60S subunits (ligand) titrated from 5 uM to 0.15 nM over 16 capillaries; 20 mM Tris-HCl pH 7.5, 100 mM KCl, 2 mM Mg(OAc)2, 1 mM DTT, 0.5 mM EDTA, 0.25 M sucrose; 25 °C; 1:1 binding model; KD values called relative, not absolute (limited by 60S solubility)
[5] = biological target: DCC C-tail ΔN29+P1 protein (residues 1168-1447) (H. sapiens) (UniProt P43146); assay: as above
Sequence of DCC C-tail ΔN29+P1 protein (residues 1168-1447) (H. sapiens) (P43146 1168-1447, stated change not applied): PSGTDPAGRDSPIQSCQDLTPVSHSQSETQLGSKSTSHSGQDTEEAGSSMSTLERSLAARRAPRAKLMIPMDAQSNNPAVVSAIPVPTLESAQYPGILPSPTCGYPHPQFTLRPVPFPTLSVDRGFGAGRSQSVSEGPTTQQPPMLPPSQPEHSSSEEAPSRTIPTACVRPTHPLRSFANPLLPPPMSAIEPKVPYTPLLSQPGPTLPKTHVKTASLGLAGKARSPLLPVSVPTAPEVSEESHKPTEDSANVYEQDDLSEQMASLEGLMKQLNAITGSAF

Sequence of DCC C-tail N29+P1 protein (residues 1121-1167) (P43146 1121-1167): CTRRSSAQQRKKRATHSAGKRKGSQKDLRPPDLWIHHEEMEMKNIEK
Sequence of DCC C-tail N29+P1 protein (residues 1121-1167) (H. sapiens) (P43146 1121-1167): as above
Sequence of DCC C-tail ΔP3 protein (residues 1121-1424) (H. sapiens) (P43146 1121-1424, stated change not applied): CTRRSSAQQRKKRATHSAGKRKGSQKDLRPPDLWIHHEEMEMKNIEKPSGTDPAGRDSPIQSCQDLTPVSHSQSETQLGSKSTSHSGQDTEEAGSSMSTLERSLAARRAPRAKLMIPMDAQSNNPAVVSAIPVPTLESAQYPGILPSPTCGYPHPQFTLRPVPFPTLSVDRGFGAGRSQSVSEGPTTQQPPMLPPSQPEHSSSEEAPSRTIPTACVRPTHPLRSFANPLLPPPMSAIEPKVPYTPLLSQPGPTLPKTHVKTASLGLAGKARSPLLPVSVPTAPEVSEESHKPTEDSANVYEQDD
Sequence of DCC C-tail ΔP3 protein (residues 1121-1424) (P43146 1121-1424, stated change not applied): as above

DCC C-tail ΔP3 protein (residues 1121-1424) (from UniProt P43146 1121-1424) (domain or fragment)
inhibition of in vitro translation of a luciferase reporter mRNA in rabbit reticulocyte lysate by 3 μM DCC protein (% inhibition of translation) [1]: 92

DCC C-tail N29+P1 KRK→AAA protein (residues 1121-1167, alanines at 1140 to 1142) (from UniProt P43146 1121-1167) (domain or fragment)
decrease of in vitro translation of a luciferase reporter mRNA in rabbit reticulocyte lysate by the DCC protein (3 and 6 μM) (% decrease of translation) [2]: 20

60S ribosomal subunit (rabbit) (from UniProt P19949 1-297) (complex)
Kd [3]: 68.4 nM | Kd [4]: 80.1 nM | Kd [5]: 285 nM

DCC C-tail N29+P1 protein (residues 1121-1167) (from UniProt P43146 1121-1167) (domain or fragment)
decrease of in vitro translation of a luciferase reporter mRNA in rabbit reticulocyte lysate by the DCC protein (3 and 6 μM) (% decrease of translation) [2]: 90

— article PMC12556795
